Test results taken from patent US20180142032A1 (Sanofi, published 2018).

T1: mLAMP1_ΔGYQTI (mouse, UniProt P11438 25-369)
T1 construct: on cells; also called pXL6009; murine LAMP1; not shown: murine transmembrane domain and cytoplasmic tail with GYQTI replaced by 5 Ala
T1 sequence: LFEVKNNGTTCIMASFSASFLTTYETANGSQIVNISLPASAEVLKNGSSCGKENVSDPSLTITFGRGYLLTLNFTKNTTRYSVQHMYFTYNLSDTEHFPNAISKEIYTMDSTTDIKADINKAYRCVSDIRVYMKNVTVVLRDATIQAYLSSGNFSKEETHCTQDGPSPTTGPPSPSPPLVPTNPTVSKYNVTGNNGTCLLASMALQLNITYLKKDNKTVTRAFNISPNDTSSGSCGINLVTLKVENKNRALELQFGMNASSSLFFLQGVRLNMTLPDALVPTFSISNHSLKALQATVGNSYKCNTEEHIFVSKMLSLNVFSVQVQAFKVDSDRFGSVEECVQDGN

T2: mLAMP1_hseq11_ΔGYQTI (mouse; human, UniProt P11438 25-369)
T2 construct: on cells; numbering read as for pXL6041; also called pXL6048; not shown: murine transmembrane domain and cytoplasmic tail with GYQTI replaced by 5 Ala
T2 chain: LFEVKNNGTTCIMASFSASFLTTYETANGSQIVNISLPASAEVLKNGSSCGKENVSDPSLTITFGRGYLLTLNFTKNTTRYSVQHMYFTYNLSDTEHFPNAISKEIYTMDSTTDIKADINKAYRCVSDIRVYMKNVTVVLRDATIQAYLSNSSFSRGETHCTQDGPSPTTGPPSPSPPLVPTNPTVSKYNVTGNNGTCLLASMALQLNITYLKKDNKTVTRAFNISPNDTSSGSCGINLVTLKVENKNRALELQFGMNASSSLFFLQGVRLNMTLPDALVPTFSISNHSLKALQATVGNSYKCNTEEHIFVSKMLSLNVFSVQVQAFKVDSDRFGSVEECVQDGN

T3: mLAMP1_hseq6-11_ΔGYQTI (mouse; human, UniProt P11438 25-369)
T3 construct: on cells; also called pXL6041; not shown: murine transmembrane domain and cytoplasmic tail with GYQTI replaced by 5 Ala
T3 chain: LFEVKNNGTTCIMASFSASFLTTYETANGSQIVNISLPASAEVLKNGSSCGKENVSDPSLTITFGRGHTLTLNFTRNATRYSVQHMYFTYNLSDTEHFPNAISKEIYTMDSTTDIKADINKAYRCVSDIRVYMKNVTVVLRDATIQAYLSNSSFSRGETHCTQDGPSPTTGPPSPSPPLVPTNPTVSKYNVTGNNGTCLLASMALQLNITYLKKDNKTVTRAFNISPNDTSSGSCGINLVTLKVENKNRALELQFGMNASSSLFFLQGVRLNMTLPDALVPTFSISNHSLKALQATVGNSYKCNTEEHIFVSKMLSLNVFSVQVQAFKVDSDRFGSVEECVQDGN

T4: mLAMP1_L12_LAMP1_L34::histag (mouse/human hybrid)
T4 construct: mouse LAMP1 (25-189) and human LAMP1 (196-382), His tag; also called Loop1-2: mLAMP1 Loop3-4: hLAMP1
T4 chain: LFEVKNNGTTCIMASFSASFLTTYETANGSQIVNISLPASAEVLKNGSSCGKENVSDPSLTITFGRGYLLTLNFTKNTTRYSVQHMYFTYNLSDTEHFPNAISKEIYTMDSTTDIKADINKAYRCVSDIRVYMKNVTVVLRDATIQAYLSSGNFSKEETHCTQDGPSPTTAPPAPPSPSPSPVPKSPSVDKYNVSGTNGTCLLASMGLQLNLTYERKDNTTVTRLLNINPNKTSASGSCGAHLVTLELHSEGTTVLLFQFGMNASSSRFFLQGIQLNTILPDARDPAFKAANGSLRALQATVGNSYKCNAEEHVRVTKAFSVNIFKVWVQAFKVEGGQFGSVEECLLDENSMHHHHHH

T5: mLAMP1_L1_LAMP1_L234::histag (mouse/human hybrid)
T5 construct: also called Loop1: mLAMP1 Loop2-4: hLAMP1
T5 chain: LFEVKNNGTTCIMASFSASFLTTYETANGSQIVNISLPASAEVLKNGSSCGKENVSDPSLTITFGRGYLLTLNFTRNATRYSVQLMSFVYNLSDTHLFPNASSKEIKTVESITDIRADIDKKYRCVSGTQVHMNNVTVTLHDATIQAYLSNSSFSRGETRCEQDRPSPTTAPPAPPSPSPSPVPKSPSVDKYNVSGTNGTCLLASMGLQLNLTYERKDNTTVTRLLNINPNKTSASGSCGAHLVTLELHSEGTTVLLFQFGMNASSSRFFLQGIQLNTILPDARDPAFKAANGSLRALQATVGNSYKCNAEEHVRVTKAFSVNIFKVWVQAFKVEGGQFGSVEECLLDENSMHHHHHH

T6: LAMP1_L12_mLAMP1_L34::histag (human/mouse hybrid)
T6 construct: human LAMP1 (29-195) and mouse LAMP1 (190-369), His tag; also called Loop1-2: hLAMP1 Loop3-4: mLAMP1
T6 chain: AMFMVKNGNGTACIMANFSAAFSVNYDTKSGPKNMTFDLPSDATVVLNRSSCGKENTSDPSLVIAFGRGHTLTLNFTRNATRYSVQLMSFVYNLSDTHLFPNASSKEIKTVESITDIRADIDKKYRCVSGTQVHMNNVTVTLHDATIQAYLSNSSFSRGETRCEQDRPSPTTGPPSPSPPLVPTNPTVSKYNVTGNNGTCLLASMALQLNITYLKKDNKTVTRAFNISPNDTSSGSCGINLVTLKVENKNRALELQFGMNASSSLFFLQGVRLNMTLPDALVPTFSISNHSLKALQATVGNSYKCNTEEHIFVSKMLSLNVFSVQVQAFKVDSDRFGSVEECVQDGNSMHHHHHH


Columns and labels:
mLAMP1_ΔGYQTI = target: T1, mLAMP1_ΔGYQTI; assay: flow cytometry, transfected 293-F cells, experiment 1
mLAMP1_hseq11_ΔGYQTI = target: T2, mLAMP1_hseq11_ΔGYQTI; assay: as above
mLAMP1_hseq6-11_ΔGYQTI = target: T3, mLAMP1_hseq6-11_ΔGYQTI; assay: as above
[1] = target: T4, mLAMP1_L12_LAMP1_L34::histag; assay: ELISA
[2] = target: T5, mLAMP1_L1_LAMP1_L234::histag; assay: ELISA
[3] = target: T6, LAMP1_L12_mLAMP1_L34::histag; assay: ELISA

| binding result (mLAMP1_ΔGYQTI) | mean fluorescence (mLAMP1_ΔGYQTI) | binding result (mLAMP1_hseq11_ΔGYQTI) | mean fluorescence (mLAMP1_hseq11_ΔGYQTI) | binding result (mLAMP1_hseq6-11_ΔGYQTI) | mean fluorescence (mLAMP1_hseq6-11_ΔGYQTI) | binding result [1] | binding result [2] | EC50 [3] | EC50 [2] | Binder |
| --- | --- | --- | --- | --- | --- | --- | --- | --- | --- | --- |
| no binding | 21 | no binding | 28 | no binding | 28 | no binding | no binding | 0.25 nM | – | MAb2 (antibody, mouse IgG1, kappa, murine monoclonal IgG, kappa, from hybridoma; also called murine MAb2) heavy: QVQLQQSAAELARPGASVKMSCKASGYTFTSYTMHWVKQRPGQGLEWIGYFNPSSGYPEYNQKFKDKTTLTADKSSNTAFIQLNSLTSEDSAVYYCSRGYYYGSRGYALDFWGQGASVTVSSAKTTPPSVYPLAPGSAAQTNSMVTLGCLVKGYFPEPVTVTWNSGSLSSGVHTFPAVLQSDLYTLSSSVTVPSSTWPSETVTCNVAHPASSTKVDKKIVPRDCGCKPCICTVPEVSSVFIFPPKPKDVLTITLTPKVTCVVVDISKDDPEVQFSWFVDDVEVHTAQTQPREEQFNSTFRSVSELPIMHQDWLNGKEFKCRVNSAAFPAPIEKTISKTKGRPKAPQVYTIPPPKEQMAKDKVSLTCMITDFFPEDITVEWQWNGQPAENYKNTQPIMDTDGSYFVYSKLNVQKSNWEAGNTFTCSVLHEGLHNHHTEKSLSHSPGK light: NIVLTQSPVSLAVSLGQRATISCRASESVDINGNTFMHWYQQKPGQSPKLVIYAASNIESGVPARFSGSGSSTDFTFTIDPVEADDVATYYCQQNIEDPWTFGGGTKVEIKRADAAPTVSIFPPSSEQLTSGGASVVCFLNNFYPKDINVKWKIDGSERQNGVLNSWTDQDSKDSTYSMSSTLTLTKDEYERHNSYTCEATHKTSTSPIVKSFNRNEC |
| no binding | 4 | no binding | 6 | – | 680 | no binding | – | 0.18 nM | 0.15 nM | MAb1 (antibody, mouse IgG2a, kappa, murine monoclonal IgG, kappa, from hybridoma; also called murine MAb1) heavy: QVQLQQSGAELVKPGASVKMSCKASGYIFTNYNIHWVKKSPGQGLEWIGAIYPGNGDAPYSQKFKDKATLTADKSSSTTYMQLSRLTSEDSAVYYCVRANWDVAFAYWGQGTLVSVSAAKTTAPSVYPLAPVCGDTTGSSVTLGCLVKGYFPEPVTLTWNSGSLSSGVHTFPAVLQSDLYTLSSSVTVTSSTWPSQSITCNVAHPASSTKVDKKIEPRGPTIKPCPPCKCPAPNLLGGPSVFIFPPKIKDVLMISLSPIVTCVVVDVSEDDPDVQISWFVNNVEVHTAQTQTHREDYNSTLRVVSALPIQHQDWMSGKEFKCKVNNKDLPAPIERTISKPKGSVRAPQVYVLPPPEEEMTKKQVTLTCMVTDFMPEDIYVEWTNNGKTELNYKNTEPVLDSDGSYFMYSKLRVEKKNWVERNSYSCSVVHEGLHNHHTTKSFSRTPGK light: DIQMTQSPPSLSASLGGKVTITCKASQDIDRYMAWYQDKPGKGPRLLIHDTSTLQPGIPSRFSGSGSGRDYSFSISNLEPEDIATYYCLQYDNLWTFGGGTKLEIKRADAAPTVSIFPPSSEQLTSGGASVVCFLNNFYPKDINVKWKIDGSERQNGVLNSWTDQDSKDSTYSMSSTLTLTKDEYERHNSYTCEATHKTSTSPIVKSFNRNEC |
